Test results as given in the nanobody polyreactivity screen of Harvey et al. (2022).

Assay: yeast display, Sf9 membrane polyspecificity reagent, FACS + sequencing; frameworks hold sequencing errors
In short: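 Nanobodies from a synthetic yeast display library (Saccharomyces cerevisiae BJ5465), induced 36–48 hours with galactose, were stained 1 hour at 4 °C with 10% biotinylated, detergent-solubilized Sf9 membrane reagent, enriched on streptavidin microbeads, then FACS-sorted. Anti-HA (expression) and streptavidin (reagent binding) fluorescence set low and high (top ~1%) gates. Polyreactivity labels come from the gate of origin. Genes were colony-PCR amplified, MiSeq 2 × 250 sequenced and filtered by CDR length.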

Sequence	polyreactivity (PSR sort gate)
QVQLVESGGGLVQAGGSLRLSCAASGSTFGTNVMGWYRQAPGKERELVAAISNGGSTNYADSVKGRFTISRDNAKNTVYLQMNSLKPEDTAVYYCEYDYWGQGTQVTVSS	low polyreactivity
QVQLVESGGGLVQAGGSLRLSCAASGSTFGTYAMGWYRQAPGKERELVAAISWSGGSTYYADSVKGRFTISRDKAKNTVYLQMNSLKPEDTAVYWGQGTQVTVSS	low polyreactivity
QVQLVESGGGLVQAGGSLRLSCAASGSTFGTYAMGWYRQAPGKERELVATISIGGITYYADSVKGRFTISRDNAKYTVYLQMNSLKPEDTAVYYCAKDVTDPTSRSDPSGDDYWGQGTQVTVSS	low polyreactivity
QVQLVESGGGLVQAGGSLRLSCAASGSTFGVNAMGWYRPAPGKERELVAAISSSGSSTYADSVKGRFTISRDNAKNTVYLQMNSLKPEDTAVYYCNKTTLLTVEYDYWGQGTQVTVSS	low polyreactivity
QVQLVESGGGLVQAGGSLRLSCAASGSTFGVNAMGWYRQAPGKERELVAVITRSGGSTYYADSVKGRFTISRDNAKNTFNLQMNSLKPEDSAVYYCNTEGGRDTAWYDYWGQGTEVTVSS	low polyreactivity
QVQLVESGGGLVQAGGSLRLSCAASGSTFGVNDMGWYRQAPGKEREFVADITTSGGSTYYADSVKGRFTISRDHAKNTVYLQMNSLKPEDTAVYYCAADLWPFEHDDYWGQGTQVTVSS	low polyreactivity
QVQLVESGGGLVQAGGSLRLSCAASGSTFGVYAMGWYRQAPGKERELVAAITKRGGDTYYADSVKGRFTISRDNAKNTVYLQMNSLKPEDTAVYYCAAGLYVSYYWYDYWGQGTQVTVSS	high polyreactivity
QVQLVESGGGLVQAGGSLRLSCAASGSTFGVYAMGWYRQAPGKERELVARITSGGSTYYADSVKGRFTITRDNAKKTVYLQRNSLKPEDTAVYYCAAVYRRTRSWKFDYWGQGTQVTVAS	high polyreactivity
QVQLVESGGGLVQAGGSLRLSCAASGSTFGVYTMGWYRQAPGKERELVAAITKSGGSTYYADSVKGRFTISRDNAKNTVYLQMNSLKPEDTAVYYCAADATSPLTWFDYWGQGTQVTVSS	low polyreactivity
QVQLVESGGGLVQAGGSLRLSCAASGSTFGWNAMGSYRQAPGKERELVAAISSSGGITYYADSVKGRFTISRDNAKNTVYLQMNSLKPEDTAVYYCAARAINTWFRSGVDYGYYLTMDYWGQGTQVTVSS	low polyreactivity
QVQLVESGGGLVQAGGSLRLSCAASGSTFGWNAMGWYRPAPGKERELVAAISSSGGSTNYADSVKGRFTISRDNAKNTVYLQMNSLKPEDTAVYYCAARYRTLTKYYWGQGTQVTVSS	low polyreactivity
QVQLVESGGGLVQAGGSLRLSCAASGSTFGWNAMGWYRQAPGKERELVAAINKSGGRTYYADSVKGRFTISRDNGKNTVYLQMNRLKPEDTAVYYCAAVTPIRVTSPDYDYWGQGTQVTVSS	low polyreactivity
QVQLVESGGGLVQAGGSLRLSCAASGSTFGWYGMGWYRQAPGKERELVASIRWSGGITYYADSVKGRFTISRDNAKNTVYLQMNSLKPEDTAVYSCAARTYRYFGRYDYWGQGTQVTVSS	high polyreactivity
QVQLVESGGGLVQAGGSLRLSCAASGSTFGYNAMGWYRQAPGKERELVAAISYSGGSTSYADSVKGRFTLSRDNEKNTVYVQMNSLKPVDAAVYYCARESYSQYSSQALEGYGYWGQGTQVTVSS	low polyreactivity
QVQLVESGGGLVQAGGSLRLSCAASGSTFGYNGMGWYRQAPGKERELVAAISGGARTYADSVKGRFTISRDNAKNTVYLQMNSLKPEDTAVYYCAADSPVSVTADDGYWGQGTQVTVSS	low polyreactivity
QVQLVESGGGLVQAGGSLRLSCAASGSTFGYNTMGWYRQAPGKERELVASITGRGGSTYYADSVKGRFTISRDNAKNTVYLQMNSLKPEDTAVYYCAAAWKAYRRYGYWGQGTQVTVSS	high polyreactivity
QVQLVESGGGLVQAGGSLRLSCAASGSTFGYNTMGWYRQAPGKEREWVAAITGTGRTNYADSVKGRFTISRDNAKNTVYLQMNSLKPEDTAVYYCAASLWQRAIGRYEYWGQGTQVTVSS	high polyreactivity
QVQLVESGGGLVQAGGSLRLSCAASGSTFGYYAMGWYRQAPGKERELVAAINSGDSTSYAESVKGRFTISRDNAKNTVYLQMNSLKPEDTAVYYCAVRPRRHQYGYWGQGTQVTVSS	low polyreactivity
QVQLVESGGGLVQAGGSLRLSCAASGSTFGYYAMGWYRQAPGKERELVAAISVRGGRTYYADSVKGRFTISRDNAKNTVYVQMKSLKPEDTAVYYCATLLPGLGRYGYDYWGQGTQVTVSS	high polyreactivity
QVQLVESGGGLVQAGGSLRLSCAASGSTFGYYAMGWYRQAPGKERELVAAITSGGSTYYADSVKGRFTISRDNAKNTVYLQMNSLKPEDTAVYYCNRTYYWYWRYDYWGQGTQVTVSS	low polyreactivity
QVQLVESGGGLVQAGGSLRLSCAASGSTFGYYAMGWYRQAPGKERELVASINWRGDSTYYADSVKGRFTISRDNAKNTVYLQMNSLKPEDTAVYYCNVKPSARGSPLYDYWGQGTQVTVSS	high polyreactivity

Sequence	polyreactivity (PSR sort gate)
QVQLVESGGGLVQAGGSLRLSCAASGSTFGYYAMGWYRQAPGKERELVASISSRGGSTYYADSVKGRFTISRDNAKNTVYLQMNSLKPEDTAVYSCAARYGGFPVPGRYNYWGQGTQVTVSS	high polyreactivity
QVQLVESGGGLVQAGGSLRLSCAASGSTFGYYAMGWYRQAPGKERELVATINRSGGSTYYADSVKGRFTISRDNAKYTVYLQMNSLKPEDTAVYYCNKLAYAGFRYIGSGYWGQGTQVTVSS	low polyreactivity
QVQLVESGGGLVQAGGSLRLSCAASGSTFGYYAMGWYRQAPGKERELVATITIGGSTHYADSVKGRFTISRDNAKNTVYLQMNSLKPEDTAVYYCAARYAYYTARYTQVKGLDYWGQGTQVTVSS	high polyreactivity
QVQLVESGGGLVQAGGSLRLSCAASGSTFGYYAMGWYRQAPGRERELVAAISYRSGSTYYADSVKGRFTISRDNAKNTVYLQMNSLKPEDTAVYYCAARFGRGSRYYYWGQGTQVTVSS	high polyreactivity
QVQLVESGGGLVQAGGSLRLSCAASGSTFGYYTMGWYRQAPGKERELVAAISGSGGRTYYADSVKGRFTISRDNAKKTVNLQMNSLKPEDTAVYYCAAEGRSDWGGDDYYWGQGTQVTVSS	low polyreactivity
QVQLVESGGGLVQAGGSLRLSCAASGSTFHANAMGWYRQAPGKERELVAAISRSGGSTNYADSVKGRFTISRDNAKNTVYLQMNSLKPEDTAVYYCAKRAWTGYGYYYWGQGTQVTVSS	high polyreactivity
QVQLVESGGGLVQAGGSLRLSCAASGSTFHFYAMGWYRQAPGKERELVASITSRGGNTHYADSVKGRFTISRDNAKNTVYLQMNSLKPEDTAVYYCAARGGWYGTYDYWGQGTQVTVSS	low polyreactivity
QVQLVESGGGLVQAGGSLRLSCAASGSTFHINAMGWYRQAPGKERELVADINWSGGSTYYADSVKGRFTISRDNAKNTVYLQMNSLKPEDTAVYYCAADVGVFTYSPYDAGEHDYWGQGTQVTVSS	low polyreactivity
QVQLVESGGGLVQAGGSLRLSCAASGSTFHKNAMGWYRQAPGKERELVAGITKRGGSTYYADSVKGRFTISRDNAKNTVYLQMNSLKPEDTAVYYCNADFPVGRTEYDYWGQGTQVTVSS	low polyreactivity
QVQLVESGGGLVQAGGSLRLSCAASGSTFHPYAMGWYRQAPGKERELVAAITWRVGSTYYADSVKGRFTISRDNAKNTVYLLINCLKPEDTAVYYCAVSYLSTLGRSRYDYWGQGTQVSVSS	low polyreactivity
QVQLVESGGGLVQAGGSLRLSCAASGSTFHRNTLGWYRQAPGKERELVAGISLRGVRTYYADSVKGRFTISRDNAKNSVYLQMNSLKPEDTAVYYCAALYYYGYDYWGQGTQVTVSS	high polyreactivity
QVQLVESGGGLVQAGGSLRLSCAASGSTFHRNTMGWYRQAPAKERALVAGISLRGVSTYYADSVKGRFTISRDNAKNTVYLQMNSLKPEDTAVYYCAAGGPYTRNFKLGYWGQGTQVTVSS	high polyreactivity
QVQLVESGGGLVQAGGSLRLSCAASGSTFHRYAMGWYRQAPGKERELVAAISVRTGSTYYADSVKGRFTISRDNAKNTVYLQMNSLKPEDTAVYSCAVGKQINGKIYRYDYWGQGTQVTVSS	high polyreactivity
QVQLVESGGGLVQAGGSLRLSCAASGSTFHRYAMGWYRQAPGKERELVARINGSGGSTYYADSVKGRFTISRDNSKNTVYLQMNSLIPEDTAVYYCAADGLYYTYGYDYWGQGTQVTVSS	low polyreactivity
QVQLVESGGGLVQAGGSLRLSCAASGSTFHRYVMGWYRQAPGKERELVAVINSTGGSTYYADSVKGRFTISRDNAKNTVYLQMNSLKPEDTAVYYCARVTRRGPGYTTLYSRYDYWGQGTQVTVSS	low polyreactivity
QVQLVESGGGLVQAGGSLRLSCAASGSTFHSYVMGWYRPAPGKERELVAAITSRGGSTNYADSFKGRFTISRDNAKNTVYLQLNSLKPEDTAVYYCAADVYLGWSYFRYDYWGQGTQVTVSS	low polyreactivity
QVQLVESGGGLVQAGGSLRLSCAASGSTFHSYVMGWYRQAPGKERELVAAITSRGGSTNYADSVKGRFTISRDNAKNTVYLQMNSLKPEDTAVYYCAADGYWGWSYFRYDYWGQGTQVTVSS	low polyreactivity
QVQLVESGGGLVQAGGSLRLSCAASGSTFHTYAMGWYRQAPGKERELVAGITGSGDSTFYADSVKGRFTISRDNAKNTVYLQMNSLKPEDTAVYYCAVESLRDVFEYDYWGQGTQVTVSS	low polyreactivity
QVQLVESGGGLVQAGGSLRLSCAASGSTFHTYTMGWYRQAPGKERELVAGISRSGGSTYYADSVKGRFTISRDNAKNTVYLQMNSLKPEDTAVYYCNALSSKTDTYDYWGQGTQVTVSS	high polyreactivity
QVQLVESGGGLVQAGGSLRLSCAASGSTFHWYDMGWYRPAPGKERELVAGINSSGDGTYYADSVKGRFTISRDNAKNTVYLQMNSLKPEDTAVYYCAAEYYTYWGYEDDYWGQGTQVTVSS	low polyreactivity
